For 6 molecules, EC50 results are on record in patent US20260285971 (published 2026).

In assay [1] the target is T1, human GPRC5D (human).
T1 chain: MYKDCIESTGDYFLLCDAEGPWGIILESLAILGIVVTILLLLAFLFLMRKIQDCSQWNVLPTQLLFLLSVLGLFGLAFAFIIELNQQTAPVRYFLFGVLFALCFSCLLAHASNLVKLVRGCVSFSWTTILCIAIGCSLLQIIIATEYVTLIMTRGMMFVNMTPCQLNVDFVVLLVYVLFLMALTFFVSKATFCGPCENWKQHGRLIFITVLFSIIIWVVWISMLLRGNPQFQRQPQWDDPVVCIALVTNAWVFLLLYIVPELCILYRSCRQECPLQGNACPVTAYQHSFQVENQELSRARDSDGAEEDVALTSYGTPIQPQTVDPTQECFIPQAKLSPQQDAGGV
Briefly: FACS molp-8.

In assay [2] the target is T1, human GPRC5D. Briefly: FACS NCI-H929.
Assay [3] concerns the target T1, human GPRC5D. Description: FACS RPMI-8226.
The target in assay [4] is T1, human GPRC5D. Description: FACS CHOK1-human GPRC5D.
Assay [5] deals with T1, human GPRC5D. Description: ELISA.
Assay [6] deals with T1, human GPRC5D. Description: ELISA.
In assay [7] the target is T1, human GPRC5D. Description: ELISA.
Assay [8] deals with T1, human GPRC5D. Description: ELISA.
For assay [9], the target named is T1, human GPRC5D. Description: FACS molp-8.
Assay [10] has as its target T1, human GPRC5D. Description: FACS molp-8.
The target of assay [11] is T1, human GPRC5D. Briefly: FACS molp-8.
Assay [12] has as its target T1, human GPRC5D. Description: FACS molp-8.
The target of assay [13] is T1, human GPRC5D. Description: FACS NCI-H929.
In assay [14] the target is T1, human GPRC5D. Description: FACS NCI-H929.
For assay [15], the target named is T1, human GPRC5D. Description: FACS NCI-H929.
For assay [16], the target named is T1, human GPRC5D. Briefly: FACS NCI-H929.
Assay [17] has as its target T1, human GPRC5D. Description: FACS RPMI-8226.
Assay [18] deals with T1, human GPRC5D. Description: FACS RPMI-8226.
Assay [19] addresses T1, human GPRC5D. Description: FACS RPMI-8226.
Assay [20] deals with T1, human GPRC5D. Briefly: FACS RPMI-8226.

B1: HAB06-H5 (designed binder)
chain: EVQLVESGGGLVQPGGSLRLSCAASGFTFSSAWMYWFRQAPGKGLEWVSHIDPRGGSTYYADSVKGRFTISRDNAKNTLYLQMNSLRAEDTAVYYCAKDLRGLGRGQGTQVTVSS
As to B1, the EC50 with human GPRC5D [1] was found to be 0.178 nM; with human GPRC5D [2], 0.00038 µM; with human GPRC5D [3] it was 0.000387 µM; with human GPRC5D [4] it was 0.000241 µM.

B2: Lab06-huFc (designed binder)
chain: QVQLVESGGGLVQPGGSLRLSCTASGFTFSSAWMYWFRQAPGKGLEWVSHIDPRGGSTYYADSVKGRFTISRDNAKNTLYLQMRSLKSEDTAVYYCAKDLRGLGRGQGTQVTVSS
As for B2, the EC50 in the assay with human GPRC5D [1] turned out to be 0.132 nM; in the assay with human GPRC5D [2], 0.000273 µM; with human GPRC5D [3] it was 0.000261 µM; with human GPRC5D [4], 0.00022 µM.

B3: JNJ7564-hIgG1 (antibody, V domains shown)
VH: QVQLVQSGAEVKKPGASVKVSCKASGYSFTGYTMNWVRQAPGQGLEWMGLINPYNSDTNYAQKLQGRVTMTTDTSTSTAYMELRSLRSDDTAVYYCARVALRVALDYWGQGTLVTVSS
VL: DIQMTQSPSSLSASVGDRVTITCKASQNVATHVGWYQQKPGKAPKRLIYSASYRYSGVPSRFSGSGSGTEFTLTISNLQPEDFATYYCQQYNRYPYTFGQGTKLEIK
In the case of B3, the EC50 in the assay with human GPRC5D [5] worked out at 0.0211 nM; with human GPRC5D [6] it was 0.0379 nM; in the assay with human GPRC5D [7], 0.028 nM; in the assay with human GPRC5D [8], 0.0559 nM; with human GPRC5D [9], 0.0269 µM; in the assay with human GPRC5D [10] it was 0.0413 µM. Also, the EC50 was found to be 0.0459 µM in the assay with human GPRC5D [11]; 0.0344 µM with human GPRC5D [12]; 0.00697 µM with human GPRC5D [13]; 0.00988 µM with human GPRC5D [14]; 0.0256 µM with human GPRC5D [15]; 0.0179 µM with human GPRC5D [16]. Further, the concentration giving a half-maximal response (EC50) in the assay with human GPRC5D [17] was ~1360 µM; in the assay with human GPRC5D [18] it was ~5.46 µM; with human GPRC5D [19], ~635 µM; with human GPRC5D [20], 0.0734 µM.

B4: MCARH109-scFv-huFc (antibody, V domains shown)
VH: QVQLVESGGGLVHPGGSLRLSCAASGFTFRSHSMNWVRQAPGKGLEWVSSISSDSTYTYYADSVKGRFTISRDNAKNSLYLQMNSLRAEDTAVYYCARSGGQWKYYDYWGQGTLVTVSS
VL: SSELTQDPAVSVALGQTVRITCQGDSLRSYYASWYQQKPGQAPVLVIYGKNNRPSGIPDRFSGSSSGNTASLTITGAQAEDEADYYCNSRDSSGNPPVVFGGGTKLTVL
In the case of B4, the values for the EC50 with human GPRC5D [1], in the assay with human GPRC5D [2] and in the assay with human GPRC5D [4] were 3.23 nM, 0.00245 µM and 0.000286 µM, respectively.

B5: Lab05-huFc (antibody, V domains shown)
VH: QVQLVESGGGLVQPGGSLRLSCAASGILVSAYVMAWYRQPPGKQRDLVARLSTDGRTTYADSVKGRFTISKDNAKSTLYLQMNTLKSEDTAVYYCYAERSRGHWGQGTQVTVSS
Regarding B5, the EC50 amounted to 0.0616 nM in the assay with human GPRC5D [1], 0.000111 µM in the assay with human GPRC5D [2], 0.0316 µM in the assay with human GPRC5D [3] and 0.000279 µM with human GPRC5D [4].

B6: 5F11-hIgG1 (antibody, V domains shown)
VH: EVQLVESGGGLVQPGRSLKLSCAASGFSFSNYGMAWVRQAATKGLEWVASISTGGGNTYYRDSVKGRFIVSRDNAKNTQYLQMDSLRSEDTATYYCTRHDRGGLYWGQGVMVTVSS
VL: DIVMTQAPLSVSVTPGESASISCRSSKSLLHSNGITYVYWYFQKPGKSPQVLIYRMSNLASGVPDRFSGSGSETDFTLKISRVEAEDVGIYHCGQLLENPYTFGAGTELELK
For B6, the EC50 with human GPRC5D [5] worked out at 0.0371 nM; with human GPRC5D [6], 0.0498 nM; with human GPRC5D [7], 0.0295 nM; in the assay with human GPRC5D [8], 0.0659 nM; with human GPRC5D [9], 0.00292 µM; with human GPRC5D [10] it was 0.00564 µM. Also, the EC50 with human GPRC5D [11] was found to be 0.0126 µM; in the assay with human GPRC5D [12] it was 0.00368 µM; in the assay with human GPRC5D [13], 0.00196 µM; in the assay with human GPRC5D [14] it was 0.00269 µM; with human GPRC5D [15], 0.0029 µM; with human GPRC5D [16], 0.00305 µM. Also, the concentration for a half-maximal effect (EC50) with human GPRC5D [17] stood at 0.0187 µM; in the assay with human GPRC5D [18], 0.0265 µM; with human GPRC5D [19], 0.0121 µM; with human GPRC5D [20], 0.00707 µM.
